Test results as given in publication PMC5571939, “The nature of the Syntaxin4 C-terminus affects Munc18c-supported SNARE assembly” (PLoS ONE, 2017).

Assays:
Conditions in all cases: both partners purified
[1] = biological target: T1, Munc18c:Sx4_(1-298)-TMD (HL-Munc18c with de-tagged full-length Sx4, pre-formed) (mouse, UniProt Q60770 1-592; P70452 1-298); test: pull-down; beads with pre-formed HL-Munc18c/Sx4 binary complexes incubated with SNAP23 (100 μg, 21.7 μM) and VAMP2 (80 μg, 31.7 μM) together, overnight, 4°C; SDS-PAGE, Coomassie
T1 construct: Munc18c (Munc18-3), mouse; as m12; Syntaxin4 (Sx4) with its C-terminal transmembrane domain, mouse, amino acids 1-298; as m6; also called HL-Munc18c/Sx4 binary complex; source: formed on TALON Co2+ beads from purified E. coli proteins; not shown: His6 with long linker ([residues removed]), N-terminal, kept; His6, N-terminal, cleaved
T1 sequence (looked up) 1: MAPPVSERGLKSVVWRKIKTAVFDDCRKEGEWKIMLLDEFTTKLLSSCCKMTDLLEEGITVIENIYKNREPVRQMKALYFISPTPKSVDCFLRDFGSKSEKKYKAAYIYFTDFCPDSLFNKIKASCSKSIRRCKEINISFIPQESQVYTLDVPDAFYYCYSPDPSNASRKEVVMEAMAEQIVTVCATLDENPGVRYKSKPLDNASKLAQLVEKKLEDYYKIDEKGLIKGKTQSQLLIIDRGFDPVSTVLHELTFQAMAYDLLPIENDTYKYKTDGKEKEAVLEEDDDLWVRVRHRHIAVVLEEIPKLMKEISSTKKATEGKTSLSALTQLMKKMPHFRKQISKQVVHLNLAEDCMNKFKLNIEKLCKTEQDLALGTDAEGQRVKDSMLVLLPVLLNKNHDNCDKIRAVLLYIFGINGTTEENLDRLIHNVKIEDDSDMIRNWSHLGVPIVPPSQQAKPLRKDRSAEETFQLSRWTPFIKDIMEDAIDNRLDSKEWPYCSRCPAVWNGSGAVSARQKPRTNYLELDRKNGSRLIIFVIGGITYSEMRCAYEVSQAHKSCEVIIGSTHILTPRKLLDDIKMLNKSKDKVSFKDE
T1 sequence (looked up) 2: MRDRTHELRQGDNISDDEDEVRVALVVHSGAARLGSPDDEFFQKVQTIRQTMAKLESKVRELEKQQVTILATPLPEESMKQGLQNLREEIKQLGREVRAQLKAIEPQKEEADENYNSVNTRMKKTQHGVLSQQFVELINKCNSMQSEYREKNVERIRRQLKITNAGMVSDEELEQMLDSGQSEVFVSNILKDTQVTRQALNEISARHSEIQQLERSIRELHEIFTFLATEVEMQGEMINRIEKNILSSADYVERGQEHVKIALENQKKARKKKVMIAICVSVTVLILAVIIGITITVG

[2] = biological target: T2, Sx4_(1-275)-His (rat, UniProt Q08850 1-275, C141S); test: pull-down; Sx4-His proteins immobilised by C-terminal His6 on Co2+ resin, pre-complexed with de-tagged Munc18c or without it (controls); GST-cleaved SNAP23 and VAMP2 (40 μg) added together, overnight, 4°C; SDS-PAGE, Coomassie
T2 construct: also called Syntaxin4 soluble cytoplasmic domain with C-terminal His6; source: E. coli, purified as described previously [17, 28]; not shown: His6, C-terminal, kept
T2 sequence (looked up): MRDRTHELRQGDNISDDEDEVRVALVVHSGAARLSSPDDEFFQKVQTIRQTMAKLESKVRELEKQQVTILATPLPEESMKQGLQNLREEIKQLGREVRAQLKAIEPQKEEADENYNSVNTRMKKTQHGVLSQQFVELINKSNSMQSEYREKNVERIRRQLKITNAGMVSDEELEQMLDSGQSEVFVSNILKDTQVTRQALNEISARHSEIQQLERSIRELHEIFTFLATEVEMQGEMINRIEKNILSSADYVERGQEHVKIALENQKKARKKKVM

[3] = biological target: T3, Munc18c:Sx4_(1-275)-His pre-formed complex (rat | mouse, UniProt Q08850 1-275; Q60770 1-592, C141S); test: as above
T3 construct: as m1; Munc18c (Munc18-3), mouse; as m10; m1 immobilised by its C-terminal His6 and complexed with m10 before SNAP23 and VAMP2 were added; also called Munc18c/Sx4-His; source: formed on TALON Co2+ beads from purified E. coli proteins; not shown: His6, C-terminal, kept; His6, N-terminal, cleaved
T3 sequence (looked up) 1: T2 sequence (looked up)
T3 sequence (looked up) 2: T1 sequence (looked up) 1

Measured: binding result

B1: SNAP23 (GST-cleaved) (natural protein, mouse, UniProt O09044 1-210, looked up)
chain: MDNLSPEEVQLRAHQVTDESLESTRRILGLAIESQDAGIKTITMLDEQGEQLNRIEEGMDQINKDMREAEKTLTELNKCCGLCICPCNRTKNFESGKNYKATWGDGGDNSPSNVVSKQPSRITNGQPQQTTGAASGGYIKRITNDAREDEMEENLTQVGSILGNLKNMALDMGNEIDAQNQQIQKITEKADTNKNRIDIANTRAKKLIDS
notes: SNAP23, mouse, amino acids 1-210; source: purified (GSH-agarose, thrombin cleavage, MonoQ anion exchange)
binds: all assays above
